Test results as given in the DeepSol protein solubility set.

Test: soluble on expression in E. coli; label from the status in PepcDB or PDB records

Sequence	soluble on expression in E. coli
GPLGSPEFPGMSKVFIATANAGKAHDADIFSVSACNSFTVSCSGDGYLKVWDNKLLDNENPKDKSYSHFVHKSGLHHVDVLQAIERDAFELCLVATTSFSGDLLFYRITREDETKKVIFEKLDLLDSDMKKHSFWALKWGASNDRLLSHRLVATDVKGTTYIWKFHPFADESNSLTLNWSPTLELQGTVESPMTPSQFATSVDISERGLIATGFNNGTVQISELSTLRPLYNFESQHSMINNSNSIRSVKFSPQGSLLAIAHDSNSFGCITLYETEFGERIGSLSVPTHSSQASLGEFAHSSWVMSLSFNDSGETLCSAGWDGKLRFWDVKTKERITTLNMHCDDIEIEEDILAVDEHGDSLAEPGVFDVKFLKKGWRSGMGADLNESLCCVCLDRSIRWFREAGGK	soluble
MNCREGCGACCIAPSISTPIPGMPQGKPAGERCLHLSVEHLCGLFGLPERPAVCGAFLADPEVCGESREEAIRLIGWWEQVTAALEHHHHHH	not soluble
MTDQPDVQRVQTASRDNSTVIDLREYKTNKDPLPVTFHRRELDAILRIYGRMVGEGEWRDYAIDHLKEKAVFSVFKRSGEMPLYRIEKNPKLATKQGAYCVVNVDGRILKRGHELPQVLKVFDKVLKLIE	not soluble
MDSFWFVQQWPPAVCSFQKSGSCPGSGLRTFTIHGLWPQQSGTSLTNCPGSPFDITKISHLQSQLNTLWPSVLRANNQQFWSHEWTKHGTCSESTFNQAAYFKLAVDMRNNYDIIGALRPHAAGPNGRTKSRQAIKGFLKAKFGKFPGLRCRTDPQTKVSYLVEVVACFAQDGSTLIDCTRDTCGANFIF	soluble
MKSATSAQRPYQEVGAMIRDLIIKTPYNPGERLPPEREIAEMLDVTRTVVREALIMLEIKGLVEVRRGAGIYVLDNSGSQNTDSPDANVCNDAGPFELLQARQLLESNIAEFAALQATREDIVKMRQALQLEERELASSAPGSSESGDMQFHLAIAEATHNSMLVELFRQSWQWRENNPMWIQLHSHLDDSLYRKEWLGDHKQILAALIKKDARAAKLAMWQHLENVKQRLLEFSNVDDIYFDGYLFDSWPLDKVDA	soluble
MAHHHHHHMGKRDLQKEKQQELAAIWGSEVQGDARFPKRRRAAQKQGLGAVENNDDVDTDVLSDIVSDAGSITSKHSDTAKKETRKTAKKKSTNYRLHCFVEPGTELNAVRTVFEAYEPKVEIRTAQKGNLLNKSQFAVLTFRNKAMALHAVKKLDGTNQRDLLGVSSLKLNLMLTRQQSKIARKTFNRKIRQEKERNQLMEEQADLAFIRNFLKQHSGAKKDKQNGKALSLS	soluble
MGSDKIHHHHHHMKKKYVTIRDIAEKAGVSINTVSRALNNKPDISEETRRKILKIAQELGYVKNATASSLRSKQTNIVGVIIADSANPFYAEVLKGIEAASRKYGYQIMLMNTERIYENEEKAIEVLLQRRVDGLLITPVQDRSDDIKTLIERKVPFVIVGRHFEELEVDEIHSDEVKGGYLATRHLIERGRKNIIMISGYLFKSAAYMRLEGYRKALKEYGIPFSEKMIIETDIDIESGYRAMREAIEKGLEFEAVFCYNDLLAFGVIKALKECGYRIPEDVAVVGYDDIVYSSFICPSLTTVRIKKFEMGFEAFRMLLQRLKGRRKKRKRVILDVELVVRESG	not soluble
KTIAIIGAGIVGVSTAIWLQRDGHQVVLIDRAGPAEGTSYGNGGVLASCSIVPVTTPGLIAKAPRMLFSPNEPLFLRWGYLPRLAPWLLRYLRRANARDATQTAAAMAPIVGDSLADHLALAQGTGAEKWVVPSDYLFIYNDRAHFQGDAFGWNLRRQNGFVWDEMEAEEFRGYDPIFSSDLRFAVRLKDHGRITDPGQYVKDLAAHVVASGGQLIQADVEDIARENGRVTGVRAGGRTIPCDAAVIATGVWSGPLARKLGLEVPLEAERGYHIEFWNPNFMPKSPVMVAARKFVATPMEGRLRLAGVVEFGGLDAGPSRAPIELLKRSAAAVFPGLKADEVTEWLGHRPAPADSIPVIGELPHLKGAFTGFGHHHVGLTGGPKTGRILAQLIAGRQPNIDL	not soluble
MIRRAVVAGQFYPDDAELVEMLKRFFTDLGEEGNSRRITAGVAPHAGYIFSGYTASRTYKAIYEDGLPEVFVILGPNHTGLGSPIAVYPKGEWETPLGRIKVDEKLARRITELSEIADLDDLAHKYEHSIEVQLPFIQYLAELSGKDVKIVPITLGIQDEEVSYALGKAIYEASQELGRDIVVIASTDFMHYGEFYGYVPFRARADELPNLVKEWDMRVIRRILDFDVEGMFEEINAMNHTMCGPGGVGVGIVYSKLAGAIEAELLHYTTSFEVSRSTDAIVGYASIVMRKALEHHHHHH	not soluble
MTLDLFAPQPKTNLLPYDGDVEDYGCFISTAEAEQYFQYFLKHLAWRHDEARLYGKHFITPRQVAWYGDDHYRYAYSGIMRDSLPWDPQLLILKQQIEQTLAERFNSCLANLYQEGTQGMAWHSDGDMSLAKQTTIASLSLGATRKFCFRHLRTKEKIEMQLQSGQLIVMRGETQQHWQHAIMKSQKVIHPRINLTFRQFLLLEHHHHHH	not soluble
MYSMLKRVITEKDLLRQIRLLEQLLNVPQLTAKRLAAQIQTTERTVFSDLQYIRSQLPADWSIETDSSGIRLRNQGNAQTNELWSLFLPQSISIQLLKELLFTKELVTTSFLSTSGVSYETLKRHIKKMNQALRDFHLTIQLTTMTIQLIGAESNIRIFYHRLLVPFTHNNYFFDDYSIHEEHYFQFLKQVYSSELTVETEEIFGACWFFINTIRNKANCRVSQFSFDSKDVLFQLYQPSLAKLYASEGIYLQGEESFFAFFCFLESWNYDNVYGETLASALHTHYSQLRKSLQQFVTNLSTEEARPDLIQTNLLDNLLLLFIKYTESPTLSEQFQLEYQELMTEQAAEDLALSKSNQELLEILSRYTTIEEPTYFLSLASLLEKQAIYSIQAQTMTAYFLFQGEPAWKAFLQQELAAYLGTRVKLQAIEYVELSQLTLNEADIIISNFPLDHLDLPVFYLSLIPTKNELRRLAELTLHSYF	soluble
MGSDKIHHHHHHMTTSSVRYPQRVRNELRFRELIVLRVERISAGFQRIVLGGEALDGFISLGFDDHTKVFFPEPGCRFTPPTVTEEGIIWGEGVRPVSRDYTPLYDEARRELALDFFIHDGGVASRWAMEAREGDTLTIGGPRGSLVVPEEYACQVYVCDESGMPALRRRLESLSRLPVRPAVTALVSIQDAAYRDYLAHLTDITVEYVVGGDEQAMQTRLSQLTIPESDYFIWITGEGKTVKRLSQCFEKGFDPHLVRAAAYWHRK	not soluble
SSVNYAAGLSPYADKGICGLPETFDSPEELKTKVETLAQWIRESQYMVVHSGAGISTSTGIPDFRGPNGVWTMEERGETPHFNTTFEDARPSLTHMALLQMQRTGHLKYLISQNVDGLHVRSGFPRDRLSELHGNMFVEECEKCGKQYVRDTVVGVMGLKPTGRYCDVMRSRGLRSCRGKLISSILDWEDSLPDRDLNRADEASRRADLALTLGTSLQIKPSGDLPLLTKRTGGKLVIVNLQPTKHDKHAHLRIYGYVDDVMGQLMKLLGLDVPEWAGPTLCEDSGGDLDILPYGAWKKEVKIELKIEESNHTVSKKRKRKEQHAEEGYKNGVKVEEEMKEEGKESDSHVHTHT	soluble
MGSDKIHHHHHHMNYCSIVSSNVVKGKAKELGFHKVGIAAVNESTNAEAERLQAWIKLGYHADMEWMNNPKRSDISLIMPEARSLVCVALNYYTPHQRPDSAEYAKISRYGWGRDYHKVMNRKLKALTTWLQSLDPSIQARYYADTGPVQDKVWAQRAGIGWIAKNGNVITRAYGSWVFLGEVVTNLELEKDSPHTEHCGSCTRCLDACPTGAITQPFVVDANRCIAYHTIENRAAELPEAIASQMQGWVAGCDICQDVCPWNQRFAQTTDVVDFQPYPDNIAPKLIELAQISDEEWDKQFPASALRRIKPEMLRRNARANLDASKRNNDPESNHF	not soluble
NEIVSGKLRIAASASFGAALLSQTLIEFRLQHPQVSVEVIFTEAPLDLIEAGFDIAFYFTDTPPEGYVGHQLRTLHCKPIAHRSYLADKPNVSTPEDLGDLEHILYKSRDLVLDKWTFTHKQTQQQCRIELESTLSFNLVQSMLDATLAGCGVAMLDEFALAKLESAQKEQLVSLLPDWQTDAILPLYLLYPKREHLPRRTRAFIDHFRNIYSVGE	not soluble
MPPRKIKKDPAVVAMADTLETRVKDLLEEYKKKLREVALQTAKAESDRIIATIKPKYRDMPIMEFLASPPDDFYIESGEEEEEGEAAVAVKQELPSEPDMEIDDAAAAQKTSIPIGQNSGRNTVQVKQEPEIDDDAAHETSIPIAPSGQNSGRNTAADEHRRNEIITPAGQVLPLPTLQPEKPFRAPHVDEEIAFSVNGSPLVLAGRTTATAAGKENRKKSKKSGAASKKAAAAAGPLQPETENAGTSV	not soluble
